Data as given in patent US20230203134A1 (TRUSTEES OF COLUMBIA UNIVERSITY IN THE CITY OF NEW YORK, published 2023).
Where a chain is given by its changes, count along the chain named.

B1: monoclonal antibody 2-30 (antibody, V domains shown)
VH: QVQLVESGGGVVQPGRSLRLSCAASGFTFSSYTMHWVRQAPGKGLEWVAAISYDGNNKYYADSVKGRFTISRDNSKNTLYLQMNSLRAEDTAVYYCARSILYGGGMDVWGQGTTVTVSS
VL: DIQLTQSPSSLSASVGDRVTITCRASQGISSYLAWYQQKPGQAPKLLIYAASTLQSGVPSRFSGSGSGTDFTLTISSLQPEDFATYYCQQLNSYPLTFGGGTKVEIK
notes: also called mAb 2-30; antibody number 2-30
B2: monoclonal antibody 4-20 (antibody, V domains shown)
VH: QVQLLQSGAEVKKPGASVKVSCKASGYSFTSYYMHWVRQAPGQGLEWMGIINPSGGGTTYAQKFQGRVTMTRDTSTSTVYMELSSLRSEDTAVYYCARPGGGSYQEFDYWGQGTLVTVSS
VL: DIQMTQSPSSLSASVGDRVTITCRASQSISSYLNWYQQKPGKAPKLLISAASSLQSGVPSRFSGSGSGTDFTLTISSLQPEDFATYYCQQSYNTLQVTFGGGTKVEIK
notes: also called mAb 4-20; antibody number 4-20
B3: monoclonal antibody 2-43 (antibody, V domains shown)
VH: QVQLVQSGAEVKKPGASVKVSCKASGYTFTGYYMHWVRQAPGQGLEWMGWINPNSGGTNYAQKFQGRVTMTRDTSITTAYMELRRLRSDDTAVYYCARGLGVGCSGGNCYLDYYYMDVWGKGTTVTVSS
VL: QSALTQPASVSGSPGQSITISCTGTSSDVGGYNYVSWYQQHPGKAPKLMIYDVSKRPSGVSNRFSGSKSGNTASLTISGLQAEDEGDYYCSSYTSSSTWVFGGGTKLTVL
notes: also called mAb 2-43; monoclonal Ab 2-43
B4: monoclonal antibody 2-51 (antibody, V domains shown)
VH: QVQLVQSGAEVKKPGASVKVSCKVSGYTLIELSMHWVRQAPGKGLEWMGGFDPEDVETIYAQQFQGRVTMTEDTSTDTAYMELSSLRSEDTAVYYCATGWAYKSTWYFGYWGQGTLVTVSS
VL: QSALTQPPSASGSPGQSVTISCTGTSSDVGGYNYVSWYQQHPGKAPKLMIYEVSKRPSGVPDRFSGSKSGNTASLTVSGLQAEDEADYYCSSYAGSRMGFGGGTKLTVL
notes: also called mAb 2-51; antibody number 2-51
B5: monoclonal antibody 2-15 (antibody, V domains shown)
VH: QVQLVQSGAEVKKPGASVRVSCKASGYTFTGYYMHWVRQAPGQGLEWMGWINPISDGTNYAQKFQGWVTMTRDTSISTVYMELSRLRSDDTAVYYCARGGSRCSGGNCYGWAYDAFDIWGQGTMITVSS
VL: B3 VL with Y34F, G86A, Y88C, W99F, G103T, L107V
notes: also called mAb 2-15; antibody number 2-15
B6: monoclonal antibody 2-7 (antibody, V domains shown)
VH: QITLKESGPTLVKPTQTLTLTCTFSGFSLSTSGVGVGWIRQPPGKALEWLALIYWDDDKRYSPSLKSRLTITKDTSKNQVVLTMTNMDPVDTATYYCAHHKIERIFDYWGQGTLVTVSS
VL: QSALAQPASVSGSPGQSITISCTGTSSDVGAYNYVSWYQQHPGKAPKLMIYDVSKRPSGVSNRFSGSKSGNTASLTISGLQAEDEADYYCSSYTTSSTVFGGGTKLTVL
notes: also called mAb 2-7; antibody number 2-7
B7: monoclonal antibody 1-20 (antibody, V domains shown)
VH: EVQLVESGGGLIQPGGSLRLSCAASGLTVSSNYMSWVRQAPGKGLEWVSVIYSGGSTFYADSVKGRFTISRDNSKNTLYLQMNSLRAEDTAVYYCARDLFYYGMDVWGQGTTVTVSS
VL: DIQLTQSPSFLSASVGDRVTITCRASQGISSYLAWYQQKPGKAPKLLIYAASTLQSGVPSRFSGSGSGTEFTLTISSLQPEDFATYYCQQLNSYPCFGPGTKVDIK
notes: also called mAb 1-20; antibody number 1-20
B8: monoclonal antibody 2-4 (antibody, V domains shown)
VH: QVQLVQSGAEVKKPGASVKVSCKASGYTFTGYYMHWVRQAPGQGLEWMGWINPNSGGTNYTQMFQGRVTMTRDTSISTAYMEVSRLRSDDTAVYYCARDRSWAVVYYYMDVWGKGTTVTVSS
VL: QSALTQPPSASGSPGQSVTISCTGTSSDVGGYNYVSWYQQHPGKAPKLMIYEVSKRPSGVPDRFSGSKSGNTASLTVSGLQAEDEADYYCSSYAGSNNLVFGGGTKLTVL
notes: also called mAb 2-4; antibody number 2-4
B9: monoclonal antibody 2-38 (antibody, V domains shown)
VH: EVQLVESGGGLVKPGGSLRLSCAASGFTFSSYSMNWVRQAPGKGLEWVSSISSSSSYIYYADSVKGRFTISRDNAKNSLYLQMNSLRAEDTAVYYCTRAGWELRLDAFDIWGQGTMVTVSS
VL: SSELTQDPAVSVALGQTVRITCQGDSLRSSYASWYQQKPGQAPILVIYDKNNRPSGIPDRFSGSSSGNTASLTITGAQAEDEADYYCNSRDSSGILFGGGTKLTVL
notes: also called mAb 2-38; antibody number 2-38
B10: monoclonal antibody 4-18 (antibody, V domains shown)
VH: QVQLVESGGGVVQPGRSLRLSCAASGFTFSSYGMHWVRQAPGKGLEWVAVISYDGSNKHYADSVKGRFTISRDNSKNTLYLQMNSLRAEDTAVYYCAKDSGYNYGYSWFDPWGQGTLVTVSS
VL: SYELTQPPSVSVSPGQTARITCSADALAKQYAYWYQQKPGQAPVLVIYKDSERPSGIPERFSGSSSGTTVTLTISGVQAEDEADYYCQSTDNSGTYPNWVFGGGTKLTVL
notes: also called mAb 4-18; antibody number 4-18
B11: monoclonal antibody 5-7 (antibody, V domains shown)
VH: QVQLVQSGAEVKKPGASVKVSCKASGYTFTSYYMHWVRQAPGQGLEWMGVINPSGGSTSYAEKFRGRVTMTRDTSTSTVYMELSSLRSEDTAVYYCARDREPHSDSSGYWDSLKYYYYYALDVWGQGTTVTVSS
VL: B1 VL with D1A, Q42K, K45E, S93T, L96F, G100P, E105D
notes: also called mAb 5-7; antibody number 5-7
B12: monoclonal antibody 1-68 (antibody, V domains shown)
VH: QVQLVQSGAEVKKPGASVKVSCKVSGYTLIELSMHWVRQAPGKGLEWMGGFDPEDAETIYAQKFQGRVTMTEDTSTDTAYMELSSLRSEDTAVYYCATGWAVAGSSDVWYYYYGMDVWGQGTTVTVSS
VL: QSALTQPPSVSGSPGQSVTISCTGTSSDVGSYNRVSWYQQPPGTAPKLMIYEVSNRPSGVPDRFSGSKSGNTASLTISGLQAEDEADYYCSSYTSSSTYVFGTGTKVTVL
notes: also called mAb 1-68; antibody number 1-68
B13: monoclonal antibody 2-17 (antibody, V domains shown)
VH: QVQLVQSGAEVKKPGSSVKVSCKASGGTFSSYAISWVRQAPGQGLEWMGGNIPIFGTANYAQKFQGRVTITADESTSTAYMELSSLRSEDTAVYYCARGVGYRGVIPLNWFDPWGQGTVVTVSS
VL: EIVMTQSPATLSVSPGERATLSCRASQSVSSDLAWYQHKPGQAPRLLIYGASTRATGIPVRFSGSGSGTEFTLTISSLQSEDFAVYYCQQYNNWPPFTFGGGTKVEIK
notes: also called mAb 2-17; antibody number 2-17
B14: monoclonal antibody 1-87 (antibody, V domains shown)
VH: B12 VH with W100I, A103I, S105P, S106P, D107P, V108S, W109T
VL: B3 VL with G86A, W99Y, G103T, L107V
notes: also called mAb 1-87; antibody number 1-87

Each binder was assayed against T1, SARS-CoV-2 N-terminal domain (NTD) (SARS-CoV-2, UniProt P0DTC2 14-290) (assay: ELISA).
T1 construct: range 1-290
B1: no binding.
B2: no binding.
B3: no binding.
B4: no binding.

What follows are binders tested against T1, SARS-CoV-2 N-terminal domain (NTD) (assay: quantitative ELISA).
B5: no binding.
B6: no binding.
B7: no binding.
B8: no binding.
B9: no binding.

What follows are binders tested against T1, SARS-CoV-2 N-terminal domain (NTD) (assay: ELISA (FIG. 10D-F)).
B10: binds.
B11: binds.
B12: binds.

What follows are binders tested against T1, SARS-CoV-2 N-terminal domain (NTD) (assay: quantitative ELISA (FIG. 16C, F, I)).
B13: binds.
B14: binds.
